Measured values from patent US20140255408A1 (Janssen / Centocor, published 2014).
Residue numbers refer to the chain shown, from its start.

B1: ECB96 (designed binder)
chain: MLPAPKNLVVSEVTEDSARLSWDDPWAFYESFLIQYQESEKVGEAIVLTVPGSERSYDLTGLKPGTEYTVSIYGVHNVYKDTNIRGLPLSAIFTTAPAPAPAPAPLPAPKNLVVSRVTEDSARLSWTAPDAAFDSFWIRYFEFVSKGDAIVLTVPGSERSYDLTGLKPGTEYVVNILGVKGGSISPPLSAIFTT
notes: not shown: C-terminal poly-histidine tag
B2: ECB97 (designed binder)
chain: B1 chain with V144L, S145G, K146S, D148E, G178S
notes: as for B1
B3: ECB106 (designed binder)
chain: B1 chain with W26H, V144L, S145G, K146S, D148E, S183K
notes: as for B1
B4: ECB107 (designed binder)
chain: B1 chain with W26H, S145G, K146S, D148E
notes: as for B1
B5: ECB108 (designed binder)
chain: B1 chain with W26H
notes: as for B1
B6: ECB109 (designed binder)
chain: B1 chain with W26H, V144L, S145G, K146S, D148E, G178S
notes: as for B1
B7: P54AR4-74 (designed binder, not shown: small tags and cut ends)
chain: LPAPKNLVVSEVTEDSLRLSWGYNGDHFDSFLIQYQESEKVGEAINLTVPGSERSYDLTGLKPGTEYTVSIYGVHNVYKDTNMRGLPLSAEFTT
B8: P54AR4-81 (designed binder, not shown: small tags and cut ends)
chain: LPAPKNLVVSEVTEDSLRLSWDYDLGVYFDSFLIQYQESEKVGEAINLTVPGSERSYDLTGLKPGTEYTVSIYGVHNVYKDTNMRGLPLSAEFTT

The binders below were run against human c-Met on cells (human, UniProt P08581 25-1390) (assay: cell-based or functional assay).
With B1 the “pMet inhibition in H441 cells (IC50)” value was 835 nM. With B2 the “pMet inhibition in H441 cells (IC50)” value was 24.2 nM. In the case of B3, the “pMet inhibition in H441 cells (IC50)” value is reported as 53.3 nM. B4 was tested, and the “pMet inhibition in H441 cells (IC50)” value was 29.9 nM. In the case of B5, the “pMet inhibition in H441 cells (IC50)” value is reported as 126 nM. With B6 the “pMet inhibition in H441 cells (IC50)” value was 26 nM.

The binders below were run against T1, human EGFR on cells (human, UniProt P00533 25-1210) (assay: cell-based or functional assay).
In the case of B1, the “H292 pEGFR inhibition in H292 cells (IC50)” value (“H292 pEGFR inhibition” below) is reported as 24.7 nM. B2 was tested, and the “H292 pEGFR inhibition” value was 16.6 nM. With B3 the “H292 pEGFR inhibition” value was 367 nM. In the case of B4, the “H292 pEGFR inhibition” value is reported as 812 nM. B5 was tested, and the “H292 pEGFR inhibition” value was 814 nM. B6 was tested, and the “H292 pEGFR inhibition” value was 432 nM.

What follows are binders tested against T1, human EGFR on cells (assay: A431 cell binding assay, anti-penta-His-Alexa488 detection).
B7 was tested, and the EC50 was 77 nM. In the case of B8, the EC50 is reported as 84 nM.

What follows are binders tested against T2, Recombinant human c-Met Fc chimera (human, UniProt P08581 16-932) (assay: SPR (ProteOn), protocol of Example 3, recombinant c-Met extracellular domain).
T2 construct: not shown: Fc part
Work on B1 yielded a Kd of 22.1 nM. B2 gave a Kd of 1.7 nM. In the case of B3, the Kd is reported as 5.1 nM. In the case of B4, the Kd is reported as 9 nM. In the case of B5, the Kd is reported as 25.5 nM. B6 gave a Kd of 2.1 nM.

These binders were tested against T3, recombinant human extracellular domain of EGFR fused to an IgG1 Fc (human, UniProt P00533 25-645) (assay: SPR (ProteOn), protocol of Example 3, recombinant EGFR extracellular domain).
T3 construct: Bought from R&D Systems; The residues are stated for the panning reagent; also called EGFR-Fc; EGF R-Fc; not shown: IgG1 Fc
Method: All 6 analyte channels were used for the FN3 domains to maximize screening throughput. The dissociation phase was monitored for 10 minutes at a flow rate of 100 μL/min. The inter-spot binding signals were used as references to monitor non-specific binding between analytes and the immobilized IgG surface, and were subtracted from all binding responses. The processed binding data were locally fit to a 1:1 simple Langmuir binding model to extract the koff for each FN3 domain binding to captured EGFR-Fc.
Binding affinity of selected EGFR-binding FN3 domains to recombinant EGFR extracellular domain was further characterized by surface Plasmon resonance methods using a Proteon Instrument (BioRad). The assay set-up (chip preparation, EGFR-Fc capture) was similar to that described above for off-rate analysis. Selected EGFR binding FN3 domains were tested at 1 μM concentration in 3-fold dilution series in the horizontal orientation. A buffer sample was also injected to monitor the baseline stability. […] Two sets of reference data were subtracted from the response data: 1) the inter-spot signals to correct for the non-specific interactions between the EGFR-binding FN3 domain and the immobilized IgG surface; 2) the buffer channel signals to correct for baseline drifting due to the dissociation of captured EGFR-Fc surface over time. The processed binding data at all concentrations for each FN3 domain were globally fit to a 1:1 simple Langmuir binding model to extract estimates of the kinetic (kₘ, koff) and affinity (KD) constants.
For B1, the Kd was 1.6 nM. B2 showed a Kd of 1.3 nM. B3 gave a Kd of 16.7 nM. For B4, the Kd was 16.9 nM. With B5 the Kd was 15.3 nM. With B6 the Kd was 17.3 nM.

These binders were tested against T1, human EGFR on cells (assay: A431 cell EGF competition assay, competitor biotinylated EGF).
For B8, the IC50 was 121 nM.
